Test results: paper PMC4856209 (Nature methods, 2016)
No end group written: not given here.

B1: OBS1 peptide (peptide mimic of colicin OmpF Binding Sequence 1) (peptide)
peptide: SGGDGRGHNTGAHSTSG-NH2
B2: outer membrane porin OmpF (natural protein)
chain: AEIYNKDGNKVDLYGKAVGLHYFSKGNGENSYGGNGDMTYARLGFKGETQINSDLTGYGQWEYNFQGNNSEGADAQTGNKTRLAFAGLKYADVGSFDYGRNYGVVYDALGYTDMLPEFGGDTAYSDDFFVGRVGGVATYRNSNFFGLVDGLNFAVQYLGKNERDTARRSNGDGVGGSISYEYEGFGIVGAYGAADRTNLQEAQPLGNGKKAEQWATGLKYDANNIYLAANYGETRNATPITNKFTNTSGFANKTQDVLLVAQYQFDFGLRPSIAYTKSKAKDVEGIGDVDLVNYFEVGATYYFNKNMSTYVDYIINQIDSDNKLGVGSDDTVAVGIVYQF
B3: pentameric ligand-gated ion channel ELIC (natural protein)
chain: APADNAADARPVDVSVSIFINKIYGVNTLEQTYKVDGYIVAQWTGKPRKTPGDKPLIVENTQIERWINNGLWVPALEFINVVGSPDTGNKRLMLFPDGRVIYNARFLGSFSNDMDFRLFPFDRQQFVLELEPFSYNNQQLRFSDIQVYTENIDNEEIDEWWIRKASTHISDIRYDHLSSVQPNQNEFSRITVRIDAVRNPSYYLWSFILPLGLIIAASWSVFWLESFSERLQTSFTLMLTVVAYAFYTSNILPRLPYTTVIDQMIIAGYGSIFAAILLIIFAHHRQAMGVEDDLLIQRCRLAFPLGFLAIGCVLVIRGITL

Experiments:
Assay in all cases: native MS
[1] = biological target: Vibrio sp. N418 semiSWEET (Vibrio sp. N418)
[2] = biological target: B2
native MS = biological target: the molecule itself

Vibrio sp. N418 semiSWEET (natural protein)
stoichiometry N [1]: 2

B1
Kd [2]: 690 nM
stoichiometry N [2]: 3

B2
stoichiometry N (native MS): 3

B3
stoichiometry N (native MS): 5
